Literature values in patent publication US20240156960A1 (priority 2020, published 2024).
Substitutions are numbered along the chain they refer to. Read-outs that look alike come from different tables or passages of the source.

Tests used:
SARS-CoV2 S = SARS-CoV2 S (Severe acute respiratory syndrome coronavirus 2, UniProt P0DTC2); settings: Protein + Epitope S, Unk
SARS-CoV1 S = SARS-CoV1 S (Severe acute respiratory syndrome coronavirus, UniProt P59594)
NL63 S = NL63 S (Human coronavirus NL63, UniProt Q6Q1S2); settings: Protein + Epitope S, Unk
NL63 S, sequence (Q6Q1S2 19-1356): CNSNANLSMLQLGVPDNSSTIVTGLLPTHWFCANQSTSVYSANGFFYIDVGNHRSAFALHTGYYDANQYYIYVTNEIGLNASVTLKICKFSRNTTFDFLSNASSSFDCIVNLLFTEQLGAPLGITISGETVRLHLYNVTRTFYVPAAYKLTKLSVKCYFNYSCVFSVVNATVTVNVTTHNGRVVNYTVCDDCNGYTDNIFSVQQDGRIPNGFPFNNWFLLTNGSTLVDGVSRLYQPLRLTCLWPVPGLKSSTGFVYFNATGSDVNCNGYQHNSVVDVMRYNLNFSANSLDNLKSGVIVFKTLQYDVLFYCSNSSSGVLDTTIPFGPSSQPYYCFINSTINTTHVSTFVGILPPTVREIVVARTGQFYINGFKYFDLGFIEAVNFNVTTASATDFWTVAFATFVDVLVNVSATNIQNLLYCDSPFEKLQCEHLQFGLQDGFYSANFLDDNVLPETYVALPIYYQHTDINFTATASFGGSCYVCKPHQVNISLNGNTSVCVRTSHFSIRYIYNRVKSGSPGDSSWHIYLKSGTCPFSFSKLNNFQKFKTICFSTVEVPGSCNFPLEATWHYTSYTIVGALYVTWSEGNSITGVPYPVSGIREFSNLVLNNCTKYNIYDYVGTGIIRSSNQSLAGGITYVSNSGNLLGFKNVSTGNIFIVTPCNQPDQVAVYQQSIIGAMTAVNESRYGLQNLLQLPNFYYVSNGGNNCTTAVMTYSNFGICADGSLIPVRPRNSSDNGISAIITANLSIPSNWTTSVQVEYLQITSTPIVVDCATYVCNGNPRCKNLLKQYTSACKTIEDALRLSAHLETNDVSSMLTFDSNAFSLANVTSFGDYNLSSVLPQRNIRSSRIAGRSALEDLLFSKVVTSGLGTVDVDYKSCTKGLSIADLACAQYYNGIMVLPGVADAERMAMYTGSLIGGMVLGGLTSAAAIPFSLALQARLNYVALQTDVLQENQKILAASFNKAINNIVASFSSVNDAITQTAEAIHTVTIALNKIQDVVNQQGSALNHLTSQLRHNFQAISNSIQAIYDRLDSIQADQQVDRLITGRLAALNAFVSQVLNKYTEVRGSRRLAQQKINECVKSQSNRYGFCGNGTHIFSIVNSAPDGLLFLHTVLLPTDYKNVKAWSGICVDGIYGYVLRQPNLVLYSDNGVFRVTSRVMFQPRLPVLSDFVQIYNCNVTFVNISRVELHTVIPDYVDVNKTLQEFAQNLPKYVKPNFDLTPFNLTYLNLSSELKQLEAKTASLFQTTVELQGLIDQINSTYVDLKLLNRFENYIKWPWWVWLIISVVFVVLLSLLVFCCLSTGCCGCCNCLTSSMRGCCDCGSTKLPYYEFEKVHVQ

OC43 S = OC43 S (Human coronavirus OC43, UniProt P36334); settings: Protein + Epitope S, Unk
OC43 S, sequence (P36334 14-1353): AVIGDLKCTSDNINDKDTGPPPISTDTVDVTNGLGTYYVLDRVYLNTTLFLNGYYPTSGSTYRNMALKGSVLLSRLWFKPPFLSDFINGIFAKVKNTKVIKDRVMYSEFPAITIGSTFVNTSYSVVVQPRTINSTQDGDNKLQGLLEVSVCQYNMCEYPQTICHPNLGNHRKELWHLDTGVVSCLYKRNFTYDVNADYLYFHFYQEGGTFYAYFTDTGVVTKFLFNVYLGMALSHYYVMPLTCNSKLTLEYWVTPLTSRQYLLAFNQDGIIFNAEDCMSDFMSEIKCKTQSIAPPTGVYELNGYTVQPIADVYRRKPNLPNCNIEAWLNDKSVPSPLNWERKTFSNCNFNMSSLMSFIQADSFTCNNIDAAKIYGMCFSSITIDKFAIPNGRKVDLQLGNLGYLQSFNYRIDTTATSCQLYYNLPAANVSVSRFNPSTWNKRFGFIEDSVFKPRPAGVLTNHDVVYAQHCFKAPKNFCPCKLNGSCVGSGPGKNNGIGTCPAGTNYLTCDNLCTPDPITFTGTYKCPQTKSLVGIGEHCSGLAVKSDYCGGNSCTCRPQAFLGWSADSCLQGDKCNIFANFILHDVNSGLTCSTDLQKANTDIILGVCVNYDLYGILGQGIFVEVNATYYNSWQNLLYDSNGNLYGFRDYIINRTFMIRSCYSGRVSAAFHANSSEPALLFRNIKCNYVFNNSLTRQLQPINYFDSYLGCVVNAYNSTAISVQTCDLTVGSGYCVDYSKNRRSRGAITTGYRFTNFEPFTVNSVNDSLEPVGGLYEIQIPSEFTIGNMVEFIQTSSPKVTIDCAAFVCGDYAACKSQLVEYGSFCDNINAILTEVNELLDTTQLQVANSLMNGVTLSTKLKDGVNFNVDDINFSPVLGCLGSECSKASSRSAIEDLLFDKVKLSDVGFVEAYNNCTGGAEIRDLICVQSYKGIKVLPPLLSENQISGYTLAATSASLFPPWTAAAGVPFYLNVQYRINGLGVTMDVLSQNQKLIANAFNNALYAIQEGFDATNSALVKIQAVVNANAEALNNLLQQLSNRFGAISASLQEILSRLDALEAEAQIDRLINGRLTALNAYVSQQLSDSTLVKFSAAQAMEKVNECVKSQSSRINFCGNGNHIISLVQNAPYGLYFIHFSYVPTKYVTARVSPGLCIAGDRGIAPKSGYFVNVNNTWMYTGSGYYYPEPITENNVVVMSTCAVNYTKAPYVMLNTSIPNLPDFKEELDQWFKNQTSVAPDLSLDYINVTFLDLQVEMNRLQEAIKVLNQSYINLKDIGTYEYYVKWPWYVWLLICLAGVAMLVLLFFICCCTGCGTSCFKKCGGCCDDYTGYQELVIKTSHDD

SARS-CoV2 = settings: source Davide Robbiani et al., 2020
SARS-CoV1 [1] = system: SARS-CoV1
[2] = system: SARS-CoV2, SARS-CoV1, NL63, 229E, HKU1, OC43
SARS-CoV1 [3] = system: SARS-CoV1; remark: listed apart in the source
SARS-CoV2 S; RBD = SARS-CoV2 S; RBD (Severe acute respiratory syndrome coronavirus 2, UniProt P0DTC2); settings: epitope S
[4] = system: coronavirus named in the cell (SARS-CoV2, SARS-CoV1), S protein
[5] = system: coronavirus named in the cell (SARS-CoV2, SARS-CoV1)
SARS-CoV1 [6] = system: SARS-CoV1; remark: listed apart in the source

B1: mAb-87 (antibody, listed as Homo sapiens, V domains shown)
VH: QVQLQESGPGLVKPSETLSLTCTVSGGSMNHYYWSWIRQPPGKGLEGIGYTYYSGSTNYNPSLKSRVTISVDASKNQFSLRLSSVTAADTAVYYCARGSQIDLRGGLGATFFDYWGQGTLVTVSS
VL: QSVLTQPASVSGSPGQSITISCTGTSSDVGAYNYVSWYQQHPGKAPKLTVYDVRNRPSGVSNRFSGSKSGNTASLTISGLQAEDEAHYYCSSYTSTNTVFGGGTKLTVL
SARS-CoV2 S
  Binds to: SARS-CoV2
SARS-CoV1 S
  Doesn't Bind to: CoV1
NL63 S
  Doesn't Bind to: NL63,
OC43 S
  Doesn't Bind to: OC43,

B2: mAb-94 (antibody, listed as Homo sapiens, V domains shown)
VH: QVQLVQSGAEVKKPGSSVKVSCKASGGMFTDYAISWVRQAPGQRLEWMGGIMPGLGSPAYAQIFRDRATISADVSTSTAYLELTSLKPEDTAVYYCARDPSILNTGNHHWYDLDIWGQGTTVTVSS
VL: DIQLTQSPLSLPVGLGQSASISCRSSQRVVHTDGNTYLNWYHQRPGQSPRRLIYKVSNRDSGVPDRFSGSGSGTDFTLRISRVEAEDVGVYYCMQSTDWPRTFGQGTKLEIK
SARS-CoV2 S
  Binds to: SARS-CoV2
SARS-CoV1 S
  Doesn't Bind to: CoV1
NL63 S
  Doesn't Bind to: NL63,
OC43 S
  Doesn't Bind to: OC43,

B3: C130 (antibody, listed as Homo sapiens, V domains shown)
VH: QVQLVQSGAEVKKPGASVKVSCKASGYTFTNYYMHWVRQAPGQGLEWMGIINPSGGSTGYAQKFQGRVTMTRDTSTSTVYMELSSLRSEDTAVYYCARSRPTPDWYFDLWGRGTLVTVSS
VL: SYELTQPPSVSVAPGKTARITCGGNNIGSKSVHWYQQKPGQAPVLVIYYDSDRPSGIPERFSGSNSGNTATLTISRVEAGDEADYYCQVWDSSSDHPGVVFGGGTKLTVL
SARS-CoV2
  Binds to: SARS-CoV2
SARS-CoV1 [1]
  Not Neutralising Vs: SARS-CoV1,

B4: mBG67 (antibody, listed as Mus musculus, V domains shown)
VH: EVQLVESGGGLVQPGGSLKLSCAASGFTFSNYGMSWVRQTPDKRLELVATINRNGGSTYYLDSVKVRFTISRDNAKSTLFLQLSSLKSDDTAMYYCARIYDFDEDYFDVWGAGTTVTVSS
VL: QIVLTQSPAIMSASLGERVTMTCTASSSVSSSYLHWYQQKPGSSPKLWIYSTSNLASGVPARFSGSGSGTSYSLTISSMEAEDAATYYCLQYHRSPWTFGGGTKLEIK
[2]
  Binds to: NL63

B5: C116 (antibody, listed as Homo sapiens, V domains shown)
VH: QVQLVESGGGVVQPGRSLRLSCAASGFTYSTYAMHWVRQAPGKGLEWVAFISYDGSNKYYADSVKGRFTISRDNSKNTLYLQMNSLRAEDTAVYYCARDFYHNWFDPWGQGTLVTVSS
VL: NFMLTQPHSVSESPGKTVTISCTGSSGSIASNYVQWYQQRPGSAPTTVIYEDNQRPSGVPDRFSGSIDRSSNSASLTISGLKTEDEADYYCQSYDSGNHWVVFGGGTRLTVL
SARS-CoV1 [3]
  Not Neutralising Vs: SARS-CoV1,
SARS-CoV2 S; RBD
  Binds to: SARS-CoV2

B6: 9A1 (antibody, listed as Homo sapiens, V domains shown)
VH: EVQLLESGGGVVQPGRSLRLSCVVSGFTFNNYGMHWVRQAPGKGLEWVAVISYEGSVKYYGDHVDGRFTISRDPFKNTLYLHMNNLRPDDTAVYYCAKVSAIFWLGQGLSPIDVWGQGTTVTVSS
VL: DIVMTQSPATLSASPGERVTLSCRASQNIRNNLAWYQQKPGQAPRLLIHGASTRAAGAPARFSGSGSDTQFTLTVSSLQSEDFAVYYCHQYSKWPVTFGGGTKVDIK
[4]
  Binds to: SARS-CoV2
[5]
  Not Neutralising Vs: SARS-CoV2

B7: C128 (antibody, listed as Homo sapiens, V domains shown)
VH: EVQLLESGGGLVQPGGSLRLSCAASGFTFSTYAMSWVRQAPGKGLEWVSTITGSGRDTYYADSVKGRFTISRDNSKNTLFLQLNSLRAEDAAVYSCANHPLASGDDYYHYYMDVWGKGTTVTVSS
VL: EIVLTQSPGTLSLSPGERATLSCRASQSVNSRQLAWYQQKPGQAPRLLIYGASSRATGIPERFSGSGSGTDFTLTISRLESEDFAVYHCQQYGSSRALTFGGGTKVEIK
SARS-CoV2
  Binds to: SARS-CoV2
SARS-CoV1 [1]
  Not Neutralising Vs: SARS-CoV1

B8: mBG21 (antibody, listed as Mus musculus, V domains shown)
VH: QIQLVQSGPELKKPGETVKISCKASGYTFTDYSMHWVKQAPGKGSKWMGWINTETGEPTYADDFKGRFAFSLETSASTAYLQINNLKNEDTATYFCALRRWGQGTLVTVSS
VL: IVMTQTPKFLLVSAGDRVTITCKASQSVSNDVAWFQQKPGQSPKKLLIYFASNRYTGVPDRFTGSGYGTDFTFTITTVQAEDLAVYFCQQDYSSPWTFGGGTKLEIK
[2]
  Binds to: NL63

B9: mBG57 (antibody, listed as Mus musculus, V domains shown)
VH: B8 VH with S111A
VL: DIVMTQAAPSEPVTPGESVSISCGSSKSLLHSNDNTYLYWFLQRPGQSPQLLIYRMSNLASGVPDRFTGSGSGTAFTLRISRVEAEDVGVYYCMQHLENPLGVRWRHQAGNQT
[2]
  Binds to: NL63

B10: mBG22 (antibody, listed as Mus musculus, V domains shown)
VH: B8 VH with S111A
VL: IVMTQTPKFLLVSAGDRVTITCKASQSVSNDVAWFQQKPGQSPKLLIYFASNRYTGVPDRFTGSGYGTDFTFTITTVQAEDLAVYFCQQDYSSPWTFGGGTKLEIK
[2]
  Binds to: NL63

B11: C114 (antibody, listed as Homo sapiens, V domains shown)
VH: QVQLVESGGGLIQPGGSLKLSCVVSGFTVSKNYISWVRQAPGKGLEWVSVIFAGGSTFYADSVKGRFAISRDNSNNTLFLQMNSLRVEDTAIYYCARGDGELFFDQWGQGTLVTVSS
VL: QSVLTQPPSVSGAPGQRVTISCTGTSSNIGAGYDVHWYQQLPGRAPKVLISGNNIRPSEVPDRFSGSRSGTSASLAITSLQPEDEAQYYCQSYDSSLYAVFGGGTKLTVL
SARS-CoV1 [3]
  Not Neutralising Vs: SARS-CoV1,
SARS-CoV2 S; RBD
  Binds to: SARS-CoV2

B12: mAb-88 (antibody, listed as Homo sapiens, V domains shown)
VH: QVQLVESGAEVKKPGSSVKISCKISGDTFSTNAISWLRQAPGREPEWMGGIVPLVGPASYAQRPQGRLTITADEFTNTAYLELNSLRSEDTATYYCARDSDPYTATRRHNHYWYAMDVWGQGTTVTVSS
VL: DIRLTQTPLSLPVTLGQPASISCRSSQIAMHSDGNTYLSWFHQRPGQPPRRLIYKISNRDSGVPDRFSGSGSGTDFTLKISRVEAEDIGTFYCMQGTDWPRTFGQGTKVDIK
SARS-CoV2 S
  Binds to: SARS-CoV2
SARS-CoV1 S
  Doesn't Bind to: CoV1
NL63 S
  Doesn't Bind to: NL63,
OC43 S
  Doesn't Bind to: OC43,

B13: C118 (antibody, listed as Homo sapiens, V domains shown)
VH: QVQLVESGGGVVQPGRSLRLSCAASGFTFSNYAMHWVRQAPGKGLEWVAVISYDGSNKYYADSVKGRFTISRDNSKNTLYLQMNSLRAEDTAIYYCASGYTGYDYFVRGDYYGLDVWGQGTTVTVSS
VL: QPVLTQSPSASASLGASVKLTCTLSSGHSSYAIAWHQQQPEKGPRYLMKLNTDGSHSKGDGIPDRFSGSSSGAERYLTISSLQSEDEADYYCQTWGTGILVFGGGTKLTVL
SARS-CoV1 [6]
  Binds to: SARS-CoV1,
SARS-CoV2 S; RBD
  Binds to: SARS-CoV2

B14: C022 (antibody, listed as Homo sapiens, V domains shown)
VH: QVQLQESGPGLVKPSETLSVTCTVSGGSISSSRYYWGWIRQPPGKGLEWIGSIYYSGSTYYNPSLKSRVTISVDTSKNQFSLKLSSVTAADTAVYYCARHAAAYYDRSGYYFIEYFQHWGQGTLVTVSS
VL: DIQMTQSPSTLSASVGDSVTITCRASQSISSWLAWYQQKPGKAPKLLIYKASSLESGVPSRFSGSGSGTEFTLTISSLQPDDFATYYCQQYNNYRYTFGQGTKLEIK
SARS-CoV1 [6]
  Binds to: SARS-CoV1,
SARS-CoV2 S; RBD
  Binds to: SARS-CoV2

B15: C113 (antibody, listed as Homo sapiens, V domains shown)
VH: QVQLVESGGGVVQPGRSLRLSCAASGFTFSNFGMHWVRQAPGKGLEWVAVIWYDGSNKYYADSVKGRFTISRDNSKNTLYLQMNSLRAEDTAVYYCARGVNPDDILTGVDAFDIWGQGTMVTVSS
VL: B14 VL with S18R, I29M, K42N, Y91H, N93S, Y94S, R95P, Y96L, Q100G, L104V
SARS-CoV1 [3]
  Not Neutralising Vs: SARS-CoV1,
SARS-CoV2 S; RBD
  Binds to: SARS-CoV2

B16: C126 (antibody, listed as Homo sapiens, V domains shown)
VH: QVQLQESGPGLVKPSETLSLSCAVSGGSIGSYFWSWIRQPPGKGLEWIGYLHYSGSTNYNPSLKSRVTISVDTSKNQFSLKLSSVTAADTAVYYCARLQWLRGAFDIWGQGTMVTVSS
VL: NFMLTQPHSVSESPGKTVTISCTGSSGSIASNYVQWYQQRPGSAPTTVINEDNQRPSGVPDRFSGSIDSSSNSASLTISGLKTEDEADYYCQSYDSSNLVFGGGTKLTVL
SARS-CoV1 [3]
  Not Neutralising Vs: SARS-CoV1,
SARS-CoV2 S; RBD
  Binds to: SARS-CoV2
